Test results: patent US20110165679

Tests used:
Experiment in all cases: cell_activity
[1] = test system: Lig3-4++ (engineered meganuclease variant); details: 56 of 237 clones mutated; BMS maize cells
[2] = test system: Lig3-4 (engineered I-CreI-type single-chain meganuclease); details: 3 of 637 clones mutated; BMS maize cells
[3] = test system: Lig3-4+ (engineered meganuclease variant); details: 1 of 353 clones mutated; BMS maize cells
I-CreI = target: T1, I-CreI (UniProt P05725); details: BMS maize cells
T1 sequence: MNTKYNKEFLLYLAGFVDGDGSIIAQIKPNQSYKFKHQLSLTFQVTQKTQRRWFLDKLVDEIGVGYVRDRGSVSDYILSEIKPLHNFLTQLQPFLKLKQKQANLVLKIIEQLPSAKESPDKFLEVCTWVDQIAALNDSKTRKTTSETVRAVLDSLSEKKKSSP

[4] = target: T2, I-SceI (maize codon-modified moI-SceI) (UniProt P03882); details: BMS maize cells
T2 sequence: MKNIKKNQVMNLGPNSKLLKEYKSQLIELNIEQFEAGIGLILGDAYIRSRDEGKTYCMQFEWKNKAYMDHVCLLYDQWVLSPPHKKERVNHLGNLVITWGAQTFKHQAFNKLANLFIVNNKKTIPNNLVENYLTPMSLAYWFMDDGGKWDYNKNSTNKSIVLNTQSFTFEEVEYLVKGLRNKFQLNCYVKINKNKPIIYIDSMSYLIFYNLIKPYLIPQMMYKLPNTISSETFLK

ATATACCTCACACGTACGCGTA (double strand) [LIG-1 site (near liguleless1)]
activity (% mutation rate) [1]: 24 | activity (% mutation rate) [2]: 0.5 | activity (% mutation rate) [3]: 0.3

Double I-CreI site
activity (% mutation rate) (I-CreI; 50 of 66 clones mutated): 76

Double I-SceI site
activity (% mutation rate) ([4]; 57 of 63 clones mutated): 90

I-CreI site
activity (% mutation rate) (I-CreI; 318 of 904 clones mutated, 0 of 34 without endonuclease): 35

I-SceI site
activity (% mutation rate) ([4]; 49 of 58 clones mutated, T-DNA replicon assay, 0 of 34 without endonuclease): 84
